Results from paper PMC4522599.

Columns and labels:
[1] = target: In trans activated C25A-cathepsin S (human); assay: surface acoustic wave biosensor (sam5BLUE); C25A-cathepsin S coupled by EDC/NHS to a short-chain COOH sensor chip; untreated Bet v 1 injected at increasing concentrations (5 or 10 to 100 μM); 20 mM imidazole pH 6.7, 50 mM NaCl; apparent KD from kobs by linear regression
[2] = target: In trans activated C25A-cathepsin S (human); assay: surface acoustic wave biosensor (sam5BLUE); C25A-cathepsin S immobilized; heat-destabilized Bet v 1 (10 min at 60 °C, spin-filtered) injected, 1a at 10 to 100 μM, 1d at 2.5 to 40 μM; pH 6.7

| Binder | Kd [1] | fold reduction in affinity against untreated Bet v 1d [2] |
| --- | --- | --- |
| Bet v 1a (Bet v 1.0101), major birch pollen allergen (natural protein) GVFNYETETTSVIPAARLFKAFILDGDNLFPKVAPQAISSVENIEGNGGPGTIKKISFPEGFPFKYVKDRVDEVDHTNFKYNYSVIEGGPIGDTLEKISNEIKIVATPDGGSILKISNKYHTKGDHEVKAEQVKASKEMGETLLRAVESYLLAHSDAYN | 21.5 µM | – |
| Bet v 1d (Bet v 1.0401), hypoallergenic isoform of the major birch pollen allergen (natural protein) MGVFNYEIETTSVIPAARLFKAFILDGDNLVPKVAPQAISSVENIEGNGGPGTIKKINFPEGFPFKYVKDRVDEVDHTNFKYNYSVIEGGPVGDTLEKISNEIKIVATPDGGCVLKISNKYHTKGNHEVKAEQVKASKEMGETLLRAVESYLLAHSDAYN | 5.4 µM | 5 fold |
